# B1: PHTF1 (parent)
# chain: RVKLISNKGTETDNDPSCVHPIIK
# Variants of: B1
# Experiment: protein stability index of a GFP-peptide fusion (GPS, HEK-293T) (PSI 1-6); higher = more stable
# Conditions: c terminus: a fixed tail appended
# 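Further: lentivirally expressed fusions sorted by FACS into six bins by GFP to DsRed ratio, PSI derived from sequencing read proportions per bin multiplied by bin number.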
row,Variant,protein stability index
1,RVKLISNKGTEGDNDPSCVHPIIK,4.14
2,RVKLISNKGTEMDNDPSCVHPIIK,3.44
3,RVKLISNKGTENDNDPSCVHPIIK,4.26
4,RVKLISNKGTEKDNDPSCVHPIIK,4.49
5,RVKLISNKGTELDNDPSCVHPIIK,3.61
6,RVKLISNKGTEVDNDPSCVHPIIK,4.01
7,RVKLISNKGTESDNDPSCVHPIIK,4.09
8,RVKLISNKGTEFDNDPSCVHPIIK,3.67
9,RVKLISNKGTECDNDPSCVHPIIK,3.87
10,RVKLISNKGTEYDNDPSCVHPIIK,3.25
11,RVKLISNKGTEIDNDPSCVHPIIK,3.86
12,RVKLISNKGTEDDNDPSCVHPIIK,4.31
13,RVKLISNKGTERDNDPSCVHPIIK,3.95
14,RVKLISNKGTEEDNDPSCVHPIIK,4.53
15,RVKLISNKGTEPDNDPSCVHPIIK,4.29
16,RVKLISNKGTEHDNDPSCVHPIIK,4.24
17,RVKLISNKGTEADNDPSCVHPIIK,4.11
18,RVKLISNKGTEQDNDPSCVHPIIK,4.18
19,RVKLISNKGTEWDNDPSCVHPIIK,3.11
20,RVKLISNKGTETSNDPSCVHPIIK,3.85
21,RVKLISNKGTETWNDPSCVHPIIK,2.48
22,RVKLISNKGTETANDPSCVHPIIK,3.72
23,RVKLISNKGTETMNDPSCVHPIIK,3.48
24,RVKLISNKGTETENDPSCVHPIIK,4.21

row,Variant,protein stability index
1,RVKLISNKGTETCNDPSCVHPIIK,3.21
2,RVKLISNKGTETYNDPSCVHPIIK,2.74
3,RVKLISNKGTETPNDPSCVHPIIK,3.26
4,RVKLISNKGTETNNDPSCVHPIIK,3.68
5,RVKLISNKGTETHNDPSCVHPIIK,3.51
6,RVKLISNKGTETGNDPSCVHPIIK,3.89
7,RVKLISNKGTETTNDPSCVHPIIK,3.76
8,RVKLISNKGTETINDPSCVHPIIK,3.24
9,RVKLISNKGTETLNDPSCVHPIIK,3.4
10,RVKLISNKGTETQNDPSCVHPIIK,3.9
11,RVKLISNKGTETFNDPSCVHPIIK,2.96
12,RVKLISNKGTETVNDPSCVHPIIK,3.5
13,RVKLISNKGTETKNDPSCVHPIIK,3.74
14,RVKLISNKGTETRNDPSCVHPIIK,3.76
15,RVKLISNKGTETDNIPSCVHPIIK,3.29
16,RVKLISNKGTETDNFPSCVHPIIK,2.87
17,RVKLISNKGTETDNWPSCVHPIIK,2.04
18,RVKLISNKGTETDNVPSCVHPIIK,3.68
19,RVKLISNKGTETDNTPSCVHPIIK,3.56
20,RVKLISNKGTETDNYPSCVHPIIK,3
21,RVKLISNKGTETDNEPSCVHPIIK,3.94
22,RVKLISNKGTETDNKPSCVHPIIK,3.79
23,RVKLISNKGTETDNQPSCVHPIIK,3.82
24,RVKLISNKGTETDNCPSCVHPIIK,3.09

row,Variant,protein stability index
1,RVKLISNKGTETDNMPSCVHPIIK,3.62
2,RVKLISNKGTETDNAPSCVHPIIK,3.8
3,RVKLISNKGTETDNPPSCVHPIIK,4.1
4,RVKLISNKGTETDNSPSCVHPIIK,3.9
5,RVKLISNKGTETDNLPSCVHPIIK,3.27
6,RVKLISNKGTETDNHPSCVHPIIK,3.64
7,RVKLISNKGTETDNNPSCVHPIIK,4.06
8,RVKLISNKGTETDNGPSCVHPIIK,3.67
9,RVKLISNKGTETDNRPSCVHPIIK,3.45
10,RVKLISDKGTETDNDPSCVHPIIK,4.26
11,RVKLISEKGTETDNDPSCVHPIIK,4.2
12,RVKLISPKGTETDNDPSCVHPIIK,4.09
13,RVKLISKKGTETDNDPSCVHPIIK,4.31
14,RVKLISQKGTETDNDPSCVHPIIK,4.09
15,RVKLISYKGTETDNDPSCVHPIIK,3.32
16,RVKLISGKGTETDNDPSCVHPIIK,3.96
17,RVKLISFKGTETDNDPSCVHPIIK,2.92
18,RVKLISMKGTETDNDPSCVHPIIK,3.36
19,RVKLISWKGTETDNDPSCVHPIIK,3.1
20,RVKLISRKGTETDNDPSCVHPIIK,3.47
21,RVKLISVKGTETDNDPSCVHPIIK,3.77
22,RVKLISTKGTETDNDPSCVHPIIK,4
23,RVKLISIKGTETDNDPSCVHPIIK,3.6
24,RVKLISLKGTETDNDPSCVHPIIK,3.36

row,Variant,protein stability index
1,RVKLISSKGTETDNDPSCVHPIIK,4.22
2,RVKLISHKGTETDNDPSCVHPIIK,3.79
3,RVKLISNKGIETDNDPSCVHPIIK,3.74
4,RVKLISNKGQETDNDPSCVHPIIK,4.51
5,RVKLISNKGRETDNDPSCVHPIIK,3.91
6,RVKLISNKGPETDNDPSCVHPIIK,4.29
7,RVKLISNKGAETDNDPSCVHPIIK,4.2
8,RVKLISNKGDETDNDPSCVHPIIK,4.1
9,RVKLISNKGCETDNDPSCVHPIIK,3.8
10,RVKLISNKGNETDNDPSCVHPIIK,4.2
11,RVKLISNKGLETDNDPSCVHPIIK,3.38
12,RVKLISNKGKETDNDPSCVHPIIK,3.95
13,RVKLISNKGYETDNDPSCVHPIIK,3.94
14,RVKLISNKGGETDNDPSCVHPIIK,4.01
15,RVKLISNKGFETDNDPSCVHPIIK,3.1
16,RVKLISNKGMETDNDPSCVHPIIK,3.98
17,RVKLISNKGHETDNDPSCVHPIIK,4.52
18,RVKLISNKGVETDNDPSCVHPIIK,3.38
19,RVKLISNKGSETDNDPSCVHPIIK,3.88
20,RVKLISNKGEETDNDPSCVHPIIK,4.26
21,RVKLISNKGWETDNDPSCVHPIIK,2.66
22,RVKLISNKGTETDPDPSCVHPIIK,4.3
